The results in this text go back to US20220372155A1 (LYVGEN BIOPHARMA, published 2022).

Assay [1] addresses T1, human PD-1 expressed on CHO cells (human, UniProt Q15116 25-288).
T1 construct: whole, on cells; also used for human PD-1 on Jurkat reporter cells; also called Jurkat/NFkB-Luci/PD-1 cells
The experiment in a line: FACS, CHO cells.

Assay [2] addresses T2, human CD40 expressed on CHO cells (human, UniProt P25942 21-277).
T2 construct: whole, on cells; also used for the reporter cells over-expressing human CD40; also called cellular CD40; CHO-CD40 cells
The experiment in a line: FACS, CHO cells. A general note: In flow cytometry, cells or beads pass a laser one at a time.

Assay [3] has as its target T3, Ly090 (human CD40 ECD protein with His tag) (human, UniProt P25942 21-193).
T3 construct: extracellular domain; also called human CD40 ECD protein (His tag); recombinant human CD40; not shown: His tag
The experiment in a line: bridging ELISA, coated CD40 ECD-His, soluble PD-L1 ECD-mFc. The protocol: Exemplary anti-PD-L1/CD40 bi-specific antibodies were analyzed by ELISA for their simultaneous binding to recombinant human PD-L1 and human CD40. Briefly, Ly090 (human CD40 ECD protein with His tag) was diluted and coated onto an ELISA plate with a volume of 100 μL/well by incubation at 4° C. overnight. The next day, the plate was blocked by PBST-BSA buffer, then serially diluted samples of anti-PD-L1/CD40 bi-specific antibodies were pipetted into appropriate wells at 50 μL/well, and the plate was incubated for 1 h followed by Washing. Human PD-L1 ECD protein (mouse IgG2a Fc tag) was added into the plate at 50 μL/well. After 1-hour incubation at room temperature, HRP-conjugated anti-Mouse IgG, Fc G2a antibody was added into the plate at 100 μL/well. The plate was incubated for 1 hour at room temperature followed by washing. TMB substrate solution was added at 100 μL/well and the color development was stopped by adding 100 uL/well Stop Solution (2N H₂SO₄). Absorbance at 450 nm and 620 nm was read by Tecan F200 Pro plate reader. GraphPad 7.0, “[Agonist] vs. response—Variable slope (four parameters)” was used to plot the binding data and calculate binding EC50 values.
For orientation: In an ELISA, binding on a coated surface is turned into a signal by an enzyme label.

T2 sequence (P25942 21-277): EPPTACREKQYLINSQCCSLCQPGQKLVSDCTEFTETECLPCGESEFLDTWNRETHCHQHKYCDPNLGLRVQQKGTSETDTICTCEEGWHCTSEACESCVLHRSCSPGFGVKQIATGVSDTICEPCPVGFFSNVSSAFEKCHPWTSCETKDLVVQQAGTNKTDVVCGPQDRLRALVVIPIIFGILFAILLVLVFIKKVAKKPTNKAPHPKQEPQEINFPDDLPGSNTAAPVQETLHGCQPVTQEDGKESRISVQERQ
T3 sequence (P25942 21-193): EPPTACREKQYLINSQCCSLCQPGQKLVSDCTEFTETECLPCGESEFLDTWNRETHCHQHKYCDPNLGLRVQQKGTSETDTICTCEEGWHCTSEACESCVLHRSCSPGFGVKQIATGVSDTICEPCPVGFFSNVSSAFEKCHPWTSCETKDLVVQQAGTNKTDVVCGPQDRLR
T1 sequence (Q15116 25-288): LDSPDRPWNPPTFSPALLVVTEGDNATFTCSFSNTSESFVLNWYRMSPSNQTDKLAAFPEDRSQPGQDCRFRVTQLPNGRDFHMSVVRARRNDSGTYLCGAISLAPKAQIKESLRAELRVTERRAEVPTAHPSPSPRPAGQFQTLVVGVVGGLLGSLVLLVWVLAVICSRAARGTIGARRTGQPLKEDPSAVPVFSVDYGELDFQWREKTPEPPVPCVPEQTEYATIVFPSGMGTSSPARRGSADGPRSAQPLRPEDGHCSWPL

B1: Ly817 (bispecific antibody, human IgG1, kappa)
heavy: QVTLKESGPALVKPTQTLTLTCTFSGFSLSTSGTCVSWIRQPPGKALEWLATICWEDSKGYNPSLKSRLTISKDTSKNQAVLTMTNMDPVDTATYYCARREDSGYFWFPYWGQGTLVTVSSASTKGPSVFPLAPSSKSTSGGTAALGCLVKDYFPEPVTVSWNSGALTSGVHTFPAVLQSSGLYSLSSVVTVPSSSLGTQTYICNVNHKPSNTKVDKKVEPKSCDKTHTCPPCPAPELLGPSVFLFPPKPKDTLMISRTPEVTCVVVDVSHEDPEVKFNWYVDGVEVHNAKTKPREEQYNSTYRVVSVLTVLHQDWLNGKEYKCKVSNKALPAPIEKTISKAKGQPREPQVYTLPPSREEMTKNQVSLTCLVKGFYPSDIAVEWESNGQPENNYKTTPPVLDSDGSFFLYSKLTVDKSRWQQGNVFSCSVMHEALHNHYTQKSLSLSPGK
light: NIQMTQSPSSLSASVGDRVTITCKAGQNVNNYLAWYQQKPGKAPKVLIFNANSLQTGVPSRFSGSGSGTDFTLTISSLQPEDFATYYCQQYNSWPTFGGGTKVEIKRTVAAPSVFIFPPSDEQLKSGTASVVCLLNNFYPREAKVQWKVDNALQSGNSQESVTEQDSKDSTYSLSSTLTLSKADYEKHKVYACEVTHQGLSSPVTKSFNRGECGGGGSGGGGSGGGGSGGGGSDIQMTQSPSSLSASVGDRVTITCKASQNIYIYLNWYQQKPGKAPKLLIYNTNNLQTGVPSRFSGSGSGTDFTLTISSLQPEDFATYYCLQHSSRRTFGGGTKVEIKGGGGSGGGGSGGGGSGGGGSQVQLVESGGGLVQPGGSLKLSCATSGFNFNDYFMNWVRQASGKGLEWVGQIRNKNYNYATYYTESLEGRVTISRDDSKNTAYLQMNSLKTEDTAVYYCTSYYYDGFADYFDYWGQGTTVTVSS
notes: Ly516 HC (IgG1 mutated Fc) + Ly516 LC-TM740 scFv VL-VH
For B1, the binding result in assay [1] and in assay [2] was “binds” each time.

B2: Ly818 (bispecific antibody, human IgG1, kappa)
heavy: QVTLKESGPALVKPTQTLTLTCTFSGFSLSTSGTCVSWIRQPPGKALEWLATICWEDSKGYNPSLKSRLTISKDTSKNQAVLTMTNMDPVDTATYYCARREDSGYFWFPYWGQGTLVTVSSASTKGPSVFPLAPSSKSTSGGTAALGCLVKDYFPEPVTVSWNSGALTSGVHTFPAVLQSSGLYSLSSVVTVPSSSLGTQTYICNVNHKPSNTKVDKKVEPKSCDKTHTCPPCPAPELLGPSVFLFPPKPKDTLMISRTPEVTCVVVDVSHEDPEVKFNWYVDGVEVHNAKTKPREEQYNSTYRVVSVLTVLHQDWLNGKEYKCKVSNKALPAPIEKTISKAKGQPREPQVYTLPPSREEMTKNQVSLTCLVKGFYPSDIAVEWESNGQPENNYKTTPPVLDSDGSFFLYSKLTVDKSRWQQGNVFSCSVMHEALHNHYTQKSLSLSPGK
light: NIQMTQSPSSLSASVGDRVTITCKAGQNVNNYLAWYQQKPGKAPKVLIFNANSLQTGVPSRFSGSGSGTDFTLTISSLQPEDFATYYCQQYNSWPTFGGGTKVEIKRTVAAPSVFIFPPSDEQLKSGTASVVCLLNNFYPREAKVQWKVDNALQSGNSQESVTEQDSKDSTYSLSSTLTLSKADYEKHKVYACEVTHQGLSSPVTKSFNRGECGGGGSGGGGSGGGGSGGGGSQVQLVESGGGLVQPGGSLKLSCATSGFNFNDYFMNWVRQASGKGLEWVGQIRNKNYNYATYYTESLEGRVTISRDDSKNTAYLQMNSLKTEDTAVYYCTSYYYDGFADYFDYWGQGTTVTVSSGGGGSGGGGSGGGGSGGGGSDIQMTQSPSSLSASVGDRVTITCKASQNIYIYLNWYQQKPGKAPKLLIYNTNNLQTGVPSRFSGSGSGTDFTLTISSLQPEDFATYYCLQHSSRRTFGGGTKVEIK
notes: Ly516 HC (IgG1 mutated Fc) + Ly516 LC-TM740 scFv VH-VL
As for B2, the binding result in assay [1] and in assay [2] was “binds” throughout.

B3: Ly819 (bispecific antibody, human IgG1, kappa)
heavy: QVTLKESGPALVKPTQTLTLTCTFSGFSLSTSGTCVSWIRQPPGKALEWLATICWEDSKGYNPSLKSRLTISKDTSKNQAVLTMTNMDPVDTATYYCARREDSGYFWFPYWGQGTLVTVSSASTKGPSVFPLAPSSKSTSGGTAALGCLVKDYFPEPVTVSWNSGALTSGVHTFPAVLQSSGLYSLSSVVTVPSSSLGTQTYICNVNHKPSNTKVDKKVEPKSCDKTHTCPPCPAPELLGPSVFLFPPKPKDTLMISRTPEVTCVVVDVSHEDPEVKFNWYVDGVEVHNAKTKPREEQYNSTYRVVSVLTVLHQDWLNGKEYKCKVSNKALPAPIEKTISKAKGQPREPQVYTLPPSREEMTKNQVSLTCLVKGFYPSDIAVEWESNGQPENNYKTTPPVLDSDGSFFLYSKLTVDKSRWQQGNVFSCSVMHEALHNHYTQKSLSLSPGK
light: NIQMTQSPSSLSASVGDRVTITCKAGQNVNNYLAWYQQKPGKAPKVLIFNANSLQTGVPSRFSGSGSGTDFTLTISSLQPEDFATYYCQQYNSWPTFGGGTKVEIKRTVAAPSVFIFPPSDEQLKSGTASVVCLLNNFYPREAKVQWKVDNALQSGNSQESVTEQDSKDSTYSLSSTLTLSKADYEKHKVYACEVTHQGLSSPVTKSFNRGECGGGGSGGGGSGGGGSGGGGSDIQMTQSPSSLSASVGDRVTITCLASEDISNDLAWYQQKPGKAPKLLIYFVDRLLDGVPSRFSGSGSGTDFTLTISSLQPEDFATYYCQQSYKYPPTFGQGTKLEIKGGGGSGGGGSGGGGSGGGGSEVQLVESGGGLVQPGGSLRLSCAASGFTFTNYGLHWVRQAPGKGLEWVSSISPSGGVTYYRDSVKGRFTISRDNSKNTLYLQMNSLRAEDTAVYYCAKPFLGWGGANWIAHWGQGTLVTVSS
notes: Ly516 HC (IgG1 mutated Fc) + Ly516 LC-TM559 scFv VL-VH
Consider B3, for which the binding result in assay [1] and in assay [2] was “binds” each time.

B4: Ly820 (bispecific antibody, human IgG1, kappa)
heavy: QVTLKESGPALVKPTQTLTLTCTFSGFSLSTSGTCVSWIRQPPGKALEWLATICWEDSKGYNPSLKSRLTISKDTSKNQAVLTMTNMDPVDTATYYCARREDSGYFWFPYWGQGTLVTVSSASTKGPSVFPLAPSSKSTSGGTAALGCLVKDYFPEPVTVSWNSGALTSGVHTFPAVLQSSGLYSLSSVVTVPSSSLGTQTYICNVNHKPSNTKVDKKVEPKSCDKTHTCPPCPAPELLGPSVFLFPPKPKDTLMISRTPEVTCVVVDVSHEDPEVKFNWYVDGVEVHNAKTKPREEQYNSTYRVVSVLTVLHQDWLNGKEYKCKVSNKALPAPIEKTISKAKGQPREPQVYTLPPSREEMTKNQVSLTCLVKGFYPSDIAVEWESNGQPENNYKTTPPVLDSDGSFFLYSKLTVDKSRWQQGNVFSCSVMHEALHNHYTQKSLSLSPGK
light: NIQMTQSPSSLSASVGDRVTITCKAGQNVNNYLAWYQQKPGKAPKVLIFNANSLQTGVPSRFSGSGSGTDFTLTISSLQPEDFATYYCQQYNSWPTFGGGTKVEIKRTVAAPSVFIFPPSDEQLKSGTASVVCLLNNFYPREAKVQWKVDNALQSGNSQESVTEQDSKDSTYSLSSTLTLSKADYEKHKVYACEVTHQGLSSPVTKSFNRGECGGGGSGGGGSGGGGSGGGGSEVQLVESGGGLVQPGGSLRLSCAASGFTFTNYGLHWVRQAPGKGLEWVSSISPSGGVTYYRDSVKGRFTISRDNSKNTLYLQMNSLRAEDTAVYYCAKPFLGWGGANWIAHWGQGTLVTVSSGGGGSGGGGSGGGGSGGGGSDIQMTQSPSSLSASVGDRVTITCLASEDISNDLAWYQQKPGKAPKLLIYFVDRLLDGVPSRFSGSGSGTDFTLTISSLQPEDFATYYCQQSYKYPPTFGQGTKLEIK
notes: Ly516 HC (IgG1 mutated Fc) + Ly516 LC-TM559 scFv VH-VL
For B4, the binding result in assay [1] and in assay [2] was “binds” in each case.

B5: Ly342 (bispecific antibody, human IgG1, kappa)
heavy: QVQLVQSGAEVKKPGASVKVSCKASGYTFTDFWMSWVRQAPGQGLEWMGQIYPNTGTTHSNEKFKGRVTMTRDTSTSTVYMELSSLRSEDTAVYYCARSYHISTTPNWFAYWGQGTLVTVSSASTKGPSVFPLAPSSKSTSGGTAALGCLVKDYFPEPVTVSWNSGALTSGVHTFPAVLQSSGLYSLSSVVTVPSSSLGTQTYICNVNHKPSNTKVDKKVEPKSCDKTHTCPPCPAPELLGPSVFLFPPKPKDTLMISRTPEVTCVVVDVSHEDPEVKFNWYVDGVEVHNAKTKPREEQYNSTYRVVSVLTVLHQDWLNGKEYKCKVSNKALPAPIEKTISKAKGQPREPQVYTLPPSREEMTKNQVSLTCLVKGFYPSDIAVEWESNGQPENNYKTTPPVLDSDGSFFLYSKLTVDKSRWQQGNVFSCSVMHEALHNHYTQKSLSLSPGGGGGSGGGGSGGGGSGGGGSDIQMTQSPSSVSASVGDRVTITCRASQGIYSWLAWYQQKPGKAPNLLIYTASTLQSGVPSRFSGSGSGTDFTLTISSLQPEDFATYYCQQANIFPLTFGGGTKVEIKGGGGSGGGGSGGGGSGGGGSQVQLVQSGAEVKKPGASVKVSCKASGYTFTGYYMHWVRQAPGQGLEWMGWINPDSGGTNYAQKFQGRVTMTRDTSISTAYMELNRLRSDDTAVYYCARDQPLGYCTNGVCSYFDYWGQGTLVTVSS
light: DIQMTQSPSSLSASVGDRVTITCKASQNVYKKLEWYQQKPGKVPKVLIYHTNILQTGVPSRFSGSGSGTDYTLTISSLQPEDVATYYCYQWNSGPTFGGGTKVEIKRTVAAPSVFIFPPSDEQLKSGTASVVCLLNNFYPREAKVQWKVDNALQSGNSQESVTEQDSKDSTYSLSSTLTLSKADYEKHKVYACEVTHQGLSSPVTKSFNRGEC
notes: Ly076 HC (IgG1 mutated Fc)-Ly253 scFv VL-VH + Ly076 LC
As for B5, the binding result in assay [2] and in assay [3] was “binds” throughout.

B6: Ly344 (bispecific antibody, human IgG1, kappa)
heavy: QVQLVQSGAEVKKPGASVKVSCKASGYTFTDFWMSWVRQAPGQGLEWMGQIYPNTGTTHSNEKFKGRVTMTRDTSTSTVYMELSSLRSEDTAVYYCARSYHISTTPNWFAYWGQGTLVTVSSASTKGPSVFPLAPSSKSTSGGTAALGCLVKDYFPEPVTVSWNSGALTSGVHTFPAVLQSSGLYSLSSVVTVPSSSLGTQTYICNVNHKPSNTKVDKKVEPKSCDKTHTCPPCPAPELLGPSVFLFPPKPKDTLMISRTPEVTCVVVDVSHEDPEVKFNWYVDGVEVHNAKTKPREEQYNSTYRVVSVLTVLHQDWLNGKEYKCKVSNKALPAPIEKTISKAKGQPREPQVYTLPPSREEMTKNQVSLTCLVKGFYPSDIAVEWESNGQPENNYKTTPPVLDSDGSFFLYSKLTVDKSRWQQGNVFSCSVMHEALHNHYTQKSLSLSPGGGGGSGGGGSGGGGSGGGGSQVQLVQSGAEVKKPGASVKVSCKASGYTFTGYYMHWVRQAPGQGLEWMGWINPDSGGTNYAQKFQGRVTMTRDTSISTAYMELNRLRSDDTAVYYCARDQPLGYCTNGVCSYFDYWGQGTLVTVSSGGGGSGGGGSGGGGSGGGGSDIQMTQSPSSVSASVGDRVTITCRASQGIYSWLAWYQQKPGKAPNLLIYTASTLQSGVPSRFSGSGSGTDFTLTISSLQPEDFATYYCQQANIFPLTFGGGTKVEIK
light: DIQMTQSPSSLSASVGDRVTITCKASQNVYKKLEWYQQKPGKVPKVLIYHTNILQTGVPSRFSGSGSGTDYTLTISSLQPEDVATYYCYQWNSGPTFGGGTKVEIKRTVAAPSVFIFPPSDEQLKSGTASVVCLLNNFYPREAKVQWKVDNALQSGNSQESVTEQDSKDSTYSLSSTLTLSKADYEKHKVYACEVTHQGLSSPVTKSFNRGEC
notes: Ly076 HC (IgG1 mutated Fc)-Ly253 scFv VH-VL + Ly076 LC
In the case of B6, the binding result in assay [2] and in assay [3] was “binds” in each case.

B7: Ly343 (bispecific antibody, human IgG1, kappa)
heavy: QVQLVQSGAEVKKPGASVKVSCKASGYTFTDFWMSWVRQAPGQGLEWMGQIYPNTGTTHSNEKFKGRVTMTRDTSTSTVYMELSSLRSEDTAVYYCARSYHISTTPNWFAYWGQGTLVTVSSASTKGPSVFPLAPSSKSTSGGTAALGCLVKDYFPEPVTVSWNSGALTSGVHTFPAVLQSSGLYSLSSVVTVPSSSLGTQTYICNVNHKPSNTKVDKKVEPKSCDKTHTCPPCPAPELLGPSVFLFPPKPKDTLMISRTPEVTCVVVDVSHEDPEVKFNWYVDGVEVHNAKTKPREEQYNSTYRVVSVLTVLHQDWLNGKEYKCKVSNKALPAPIEKTISKAKGQPREPQVYTLPPSREEMTKNQVSLTCLVKGFYPSDIAVEWESNGQPENNYKTTPPVLDSDGSFFLYSKLTVDKSRWQQGNVFSCSVMHEALHNHYTQKSLSLSPG
light: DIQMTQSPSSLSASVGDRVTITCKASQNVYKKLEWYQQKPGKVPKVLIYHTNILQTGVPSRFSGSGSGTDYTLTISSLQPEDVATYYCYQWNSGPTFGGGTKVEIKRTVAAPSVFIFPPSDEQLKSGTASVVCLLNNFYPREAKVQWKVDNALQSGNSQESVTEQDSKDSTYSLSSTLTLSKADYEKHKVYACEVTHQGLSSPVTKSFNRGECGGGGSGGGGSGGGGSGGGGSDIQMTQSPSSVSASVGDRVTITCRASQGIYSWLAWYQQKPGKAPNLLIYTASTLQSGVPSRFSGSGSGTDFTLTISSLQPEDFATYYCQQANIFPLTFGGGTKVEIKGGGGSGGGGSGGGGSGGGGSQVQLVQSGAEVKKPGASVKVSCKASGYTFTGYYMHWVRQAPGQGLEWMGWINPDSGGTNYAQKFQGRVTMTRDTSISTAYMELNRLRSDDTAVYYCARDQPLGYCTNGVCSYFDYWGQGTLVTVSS
notes: Ly076 HC (IgG1 mutated Fc) + Ly076 LC-Ly253 scFv VL-VH
As for B7, the binding result in assay [2] and in assay [3] was “binds” each time.
